From patent publication US20200371101A1 come the findings set out here.

The target in experiment [1] is His-tagged IDO1 human recombinant protein (71182, BPS Biosciences) (human) (UniProt P14902). Description: ELISA: biotin-PEG3 macrocycle on NeutrAvidin plate, His-tagged human IDO1 titrated, AP-conjugated anti-6XHis antibody, fluorescence. (An ELISA detects its analyte on a solid surface through an enzyme-linked reagent.)
The target is the same in experiment [2]. Description: sandwich ELISA: biotinylated macrocycle on NeutrAvidin plate, His-tagged IDO1 titrated, anti-6XHis-AP detection.
The target is the same in experiment [3]. Description: ELISA.
For experiment [4] the target is unchanged. Description: ELISA binding assay.
For experiment [5] the target is unchanged. As to the kind of experiment: cell-based or functional assay.
For experiment [6] the target is unchanged. As to the kind of experiment: ELISA binding assay; small molecule masked as its oxadiazolone (protected).
Experiment [7] has the same target. Description: binding analysis, method not named.
The target is the same in experiment [8]. Description: binding affinity, assay not named.
Experiment [9] shares this target. Description: ELISA binding assay; deprotected small molecule (hydroxyamidine free).
For experiment [10] the target is unchanged. Description: cell-based or functional assay. This is another data set of the same source.

Where two headings read alike, the source gives them in different places. Bridge positions count the residues as written; N and C are the ends. Square brackets hold non-standard residues; d marks the D form. Ends that are not written are not given here. Az4 = not defined here

Chain of His-tagged IDO1 human recombinant protein (71182, BPS Biosciences) (human) (P14902 2-403 limits assumed): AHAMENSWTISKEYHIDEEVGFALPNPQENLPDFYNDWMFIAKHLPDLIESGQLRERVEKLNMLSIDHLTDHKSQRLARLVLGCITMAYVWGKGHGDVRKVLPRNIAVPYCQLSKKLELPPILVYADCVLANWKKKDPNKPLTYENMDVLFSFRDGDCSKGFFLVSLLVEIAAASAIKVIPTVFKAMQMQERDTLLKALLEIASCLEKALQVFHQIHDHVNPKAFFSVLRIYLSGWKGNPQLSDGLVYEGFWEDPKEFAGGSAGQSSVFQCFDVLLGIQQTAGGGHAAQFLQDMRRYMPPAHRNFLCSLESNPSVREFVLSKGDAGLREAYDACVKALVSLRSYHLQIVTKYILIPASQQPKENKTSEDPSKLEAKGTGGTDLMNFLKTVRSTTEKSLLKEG

B1: Biotin-PEG3-Cy(wray) (peptide)
peptide: WRAY
modifications: all D-amino acids; ring closed by triazole between flanking N-terminal Pra and C-terminal Az4; N-terminal biotin-PEG3
In general, EC50 refers to the midpoint of the concentration-response curve. Regarding B1, the EC50 in [1] was found to be 79 nM.

B2: biotin-PEG3-Cy(rffyl) (peptide)
peptide: RFFYL
modifications: all D-amino acids; ring closed by triazole between flanking N-terminal Pra and C-terminal Az4; N-terminal biotin-PEG3
In the case of B2, in experiment [2], the EC50 came to 125 nM.

B3: Biotin-PEG3-Cy(wyry) (peptide)
peptide: WYRY
modifications: all D-amino acids; ring closed by triazole between flanking N-terminal Pra and C-terminal Az4; N-terminal biotin-PEG3
On to B3, for which the EC50 in experiment [1] came out at 18 nM.

B4: Biotin-PEG3-Cy(wyaay) (peptide)
peptide: WYAAY
modifications: all D-amino acids; ring closed by triazole between flanking N-terminal Pra and C-terminal Az4; N-terminal biotin-PEG3
Take B4: the EC50 in [1] was 65 nM.

B5: Biotin-PEG3-Cy(waray) (peptide)
peptide: WARAY
modifications: all D-amino acids; ring closed by triazole between flanking N-terminal Pra and C-terminal Az4; N-terminal biotin-PEG3
Take B5: in experiment [1], the EC50 turned out to be 98 nM.

B6: Biotin-PEG3-Cy(yray) (peptide)
peptide: YRAY
modifications: all D-amino acids; ring closed by triazole between flanking N-terminal Pra and C-terminal Az4; N-terminal biotin-PEG3
For the molecule B6, in experiment [1], the EC50 amounted to 113 nM.

B7: biotin-PEG3-Cy(wyray) (peptide)
peptide: WYRAY
modifications: all D-amino acids; ring closed by triazole between flanking N-terminal Pra and C-terminal Az4; N-terminal biotin-PEG3
For B7, the EC50 in experiment [3], in experiment [1] and in experiment [2] was 25 nM throughout.

B8: Protected-Inh-PEG8-wyvay (peptide)
peptide: [dW][dY][dV][dA][dY]-Az4
modifications: triazole N-C; not fully specified (N-terminus); printed as Protected-Inh-PEG8-wyvay; reading uncertain; also: Inh hydroxyamidine masked as oxadiazolone
Turning to B8, the fold decrease in binding affinity (EC50) against the deprotected heterobiligand in [4] stood at 3 fold. For the same molecule, the IC50, IDO1 inhibition assay in [5] is greater than 10000 nM. Further, the concentration giving a half-maximal response (EC50) in [6] amounted to 92 nM.

B9: wyvay macrocycle (peptide)
peptide: [dW][dY][dV][dA][dY]
modifications: triazole (positions not given here); also: ring closed by flanking Pra and Az4, not in chain
B9: the EC50 in experiment [3] and in experiment [7] was 45 nM each time.

B10: Deprotected-Inh-PEG8-wyvay (peptide)
peptide: [dW][dY][dV][dA][dY]-Az4
modifications: triazole N-C; not fully specified (N-terminus); reading uncertain; also: small molecule Inh joined via PEG8 linker, attachment point not given here
Regarding B10, the values for the EC50 in experiment [8] and in [9] were 36 nM and 34 nM, respectively. Besides, the IC50, IDO1 inhibition assay in experiment [5] amounted to 407 nM; in experiment [10], 350 nM. Also, in experiment [10], the Inhibition Recombinant IDO1 IC50 worked out at 407 nM.

B11: Biotin-PEG3-Cy(ayray) (peptide)
peptide: AYRAY
modifications: all D-amino acids; ring closed by triazole between flanking N-terminal Pra and C-terminal Az4; N-terminal biotin-PEG3
In the case of B11, in experiment [1], the EC50 turned out to be 103 nM.
